# Publication PMC3199332
# B1: Patl2390 (Paraglaciecola sp. T6c) (protein)
# chain: MQTQPLDIQQFISDMPKAELHVHLEGTLEPELSFALAVKNRIPLEFDTPEQLIAAYDFHDLPSFLKIYYAGMNVLIKEEDFYQLTWDYLTKAASENIVYAELFFDPQAHTSRGVSFETIITGIHKAQLDAEQKLGIRSQLIMCFLRELSAESAMEHLKLAMPYLPWLVGVGLDSNERDNPPAKFAEVFEYAKALDLKLTMHCDVNQHNTLVHIKQCLDDIQVDRIDHGVNALQDPALLEKIKHKQLGLTVCPISNRFVVQSLTSNEVRQMLEHELLVTINSDDPAYFRAYLNENFIELQKEGQFSAQEMITLVENAFKVSWLKDTEISQYLYQVSQYVKQAEYQAA
# Substrate: CC(C)=CCNc1ncnc2nc[nH]c12
# Assay: UV absorbance steady-state kinetics
# Format: biochemical, Paraglaciecola sp. T6c
# Details: hydrolytic deamination; compound 1 identified by kcat/Km 1.2 × 10^7
protein,measurement,value
B1,kcat,7.3 ± 0.1 s⁻¹
same,kcat/Km,1.2e+07 M⁻¹ s⁻¹
